Drawing on patent publication US20220281965A1 (AstraZeneca / MedImmune, published 2022), this text covers Kd, koff and kon for 7 molecules.

What all share (assay): SPR Biacore 8K, 25 C, biotinylated GDF-15 on streptavidin C1 chip, Fab as analyte
The target of test [1] is T1, mature recombinant mouse GDF-15 with Flag and His tags (mouse, UniProt Q9Z0J7 189-303).
T1 construct: also called Flag tagged mouse GDF-15; not shown: FLAG and poly-His tags immediately C-terminal to the furin cleavage site (N-terminal on the mature protein)
T1 sequence: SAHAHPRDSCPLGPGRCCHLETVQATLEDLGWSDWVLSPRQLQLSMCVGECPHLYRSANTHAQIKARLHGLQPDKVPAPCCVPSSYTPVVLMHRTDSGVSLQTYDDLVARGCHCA
The protocol:
(§1) The experiments were carried out using mature recombinant human GDF-15, human GDF-15 H202D variant, mouse GDF-15, and cynomolgus GDF-15 with an N-terminal Flag and His tag. All species were chemically biotinylated using EZ link Sulfo-NHS-LC-Biotin (Thermo).
(§2) Streptavidin was covalently immobilized to a C1 chip surface using standard amine coupling techniques at a concentration of 4 μg/ml in 10 mM Sodium acetate pH 4.5. Recombinant biotinylated GDF-15 species were titrated onto the streptavidin chip surface in HBS-EP+ buffer to enable Fab binding.
(§3) Multiple buffer-only injections were made under the same conditions to allow for double reference subtraction of the final sensorgram sets, which were analyzed using Biacore 8K Evaluation Software. The chip surface was fully regenerated with pulses of 50 mM NaOH.

For test [2], the target named is T2, mature recombinant cynomolgus GDF-15 with an N-terminal Flag and His tag, biotinylated (cynomolgus, UniProt G7PWZ3 197-308, chemically biotinylated with EZ link Sulfo-NHS-LC-Biotin, sites not stated).
T2 construct: not shown: N-terminal Flag and His tags
T2 sequence: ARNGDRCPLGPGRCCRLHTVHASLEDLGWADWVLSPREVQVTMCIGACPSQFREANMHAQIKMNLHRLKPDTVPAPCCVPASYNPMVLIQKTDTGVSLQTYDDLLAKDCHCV
The protocol: as §1, §2, §3

Test [3] deals with T3, mature recombinant human GDF-15 with an N-terminal Flag and His tag, biotinylated (human, UniProt Q99988 197-308, chemically biotinylated with EZ link Sulfo-NHS-LC-Biotin, sites not stated).
T3 construct: not shown: N-terminal Flag and His tags
T3 sequence: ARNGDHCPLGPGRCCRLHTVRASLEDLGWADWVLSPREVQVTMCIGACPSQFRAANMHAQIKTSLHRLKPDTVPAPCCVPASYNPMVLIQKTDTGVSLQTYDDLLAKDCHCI
The protocol:
as §1, §2, §3

Test [4] concerns the target T4, mature recombinant human GDF-15 H202D variant with an N-terminal Flag and His tag, biotinylated (human, UniProt Q99988 197-308, chemically biotinylated with EZ link Sulfo-NHS-LC-Biotin, sites not stated).
T4 construct: also called Human H202D; not shown: N-terminal Flag and His tags
T4 chain: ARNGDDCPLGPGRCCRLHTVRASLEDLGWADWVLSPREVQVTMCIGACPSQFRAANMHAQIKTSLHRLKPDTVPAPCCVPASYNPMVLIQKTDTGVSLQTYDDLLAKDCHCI
As to the method:
as §1, §2, §3

B1: AB1170241 Fab (Fab, V domains shown)
VH: QVQLVQSGSELKKPGASVKVSCKASGYTFTDYNMDWIRQSPGKGLEWIGDINPNQGGTFYNQKFKDRATLTVDKSTSTAYMELRSLRSDDTAVYYCAREEKLYFGLMDYWGQGTTVTVSS
VL: DIQMTQSPSSLSASVGDRVTITCRASENIYSYLAWYQQKPGKAPKLLVYNAKTLAEGVPSRFSGSGSGIDFTLTISSLQPEDFATYYCQHQYGSPPTFGQGTKLEIK
notes: Fab of the humanized antibody, expressed as in Spooner et al. 2015
As a reminder, the Kd is the concentration at which binding is half-saturated. As usually defined, the koff is the first-order rate constant of dissociation. By kon is commonly meant the rate constant with which the complex forms. For B1, the Kd in test [1] worked out at 107 nM; in test [2] it was 0.476 nM; in test [3], 0.159 nM; in test [4] it was 0.156 nM. Moreover, the koff in test [1] came out at 0.329 s⁻¹; in test [2] it was 0.00279 s⁻¹; in test [3] it was 0.000663 s⁻¹; in test [4], 0.000696 s⁻¹. In addition, the kon stood at 3.07e+06 M⁻¹ s⁻¹ in test [1], 5.87e+06 M⁻¹ s⁻¹ in test [2], 4.18e+06 M⁻¹ s⁻¹ in test [3] and 4.45e+06 M⁻¹ s⁻¹ in test [4].

B2: AB1170243 Fab (Fab, V domains shown)
VH: QVQLVQSGSELKKPGASVKVSCKASGYTFTDYNMDWIRQSPGKGLEWIGDINPNNGGTFYNQKFKDRATLTVDKSTSTAYMELRSLRSDDTAVYYCAREEKLYFGLMDYWGQGTTVTVSS
VL: DIQMTQSPSSLSASVGDRVTITCRASENIYSYLAWYQQKPGKAPKLLVYNAKTLAEGVPSRFSGSGSGIDFTLTISSLQPEDFATYYCQHQYGSPPTFGQGTKLEIK
notes: as for B1
Take B2: the Kd in test [1] was 75 nM; in test [2] it was 0.273 nM; in test [3], 0.09 nM; in test [4], 0.09 nM. For the same molecule, the koff came out at 0.281 s⁻¹ in test [1], 0.00169 s⁻¹ in test [2], 0.000422 s⁻¹ in test [3] and 0.000425 s⁻¹ in test [4]. Also, the kon was 3.9e+06 M⁻¹ s⁻¹ in test [1], 6.23e+06 M⁻¹ s⁻¹ in test [2], 4.74e+06 M⁻¹ s⁻¹ in test [3] and 4.85e+06 M⁻¹ s⁻¹ in test [4].

B3: AB1170242 Fab (Fab, V domains shown)
VH: QVQLQESGPGLLKPSQTLSLTCTVSGFSLSTYGMGVGWIRQPAGKGLEWLANIWWNDDKYYNSALKSRLTISKDTSKNQVSLKLSSVTAADTAVYYCAQEVYGWFAYWGQGTLVTVSS
VL: DIQMTQSPSTLSASVGDRVTITCKASQNVGTNVAWYQQKPGQPPKALIYSASYRYSGVPDRFSGSGSGTDFTLTISSLQAEDVAVYYCQQYNSYPLTFGQGTKLEIK
notes: as for B1
Regarding B3, the Kd was determined as 908 nM in test [1], 2.88 nM in test [2], 3.22 nM in test [3] and 3.13 nM in test [4]. Also, the koff in test [1] turned out to be 0.826 s⁻¹; in test [2], 0.0245 s⁻¹; in test [3], 0.0247 s⁻¹; in test [4], 0.0233 s⁻¹. Also, the kon was 903000 M⁻¹ s⁻¹ in test [1], 8.5e+06 M⁻¹ s⁻¹ in test [2], 7.68e+06 M⁻¹ s⁻¹ in test [3] and 7.47e+06 M⁻¹ s⁻¹ in test [4].

B4: AB1170249 Fab (Fab, V domains shown)
VH: QVQLQESGPGLLKPSQTLSLTCTVSGFSLSTYGMGVGWIRQPLGKGLEWLANIWWNDDKYYNSALKSRLTISKDTSKNQVSLKLSSVTAADTAVYYCAQMAYSWFAYWGQGTLVTVSS
VL: DIQMTQSPSFLSASVGDRVTITCKASQNMDTNVAWYQQKPGQPPKALIYSASYRYSGVPDRFSGSGSGTDFTLTISSLQAEDVAVYYCQQYNSYPFTFGQGTKLEIK
notes: as for B1
For B4, the Kd in test [1] stood at 1140 nM; in test [2], 3.11 nM; in test [3] it was 3.13 nM; in test [4] it was 3.04 nM. For the same molecule, the koff in test [1] was found to be 0.928 s⁻¹; in test [2] it was 0.0129 s⁻¹; in test [3] it was 0.0114 s⁻¹; in test [4] it was 0.0113 s⁻¹. Moreover, the kon in test [1] came to 804000 M⁻¹ s⁻¹; in test [2] it was 4.15e+06 M⁻¹ s⁻¹; in test [3], 3.63e+06 M⁻¹ s⁻¹; in test [4], 3.72e+06 M⁻¹ s⁻¹.

B5: AB1520085 Fab (Fab, V domains shown)
VH: QVQLQQPGAELVMPGASVKMSCKASGYTFTDYWMHWVKQRPGQGLEWIGVIDTSESYTSYNQKFKGKATLTVDESSSTAYMQLSSLTSEDSAVYFCARGGTTVVLDYWGQGTTLTVSS
VL: DIVMTQSQKFMSTSVGDRVSVTCKASQNVGTAVAWYQKKPGQSPKALIYSASTRYTGVPDRFTGSGSGTDFTLTISNVQSEDLAEYFCQQYSSSPWTFGGGTKLELK
notes: Fab of the anti-mouse GDF-15 mouse IgG1, expressed as in Spooner et al. 2015
Consider B5, for which the Kd in test [1] came out at 0.14 nM; in test [2], 2.8 nM; in test [3], 1.64 nM; in test [4] it was 1.63 nM. Besides, the koff in test [1] is 0.000244 s⁻¹; in test [2], 0.0078 s⁻¹; in test [3], 0.00489 s⁻¹; in test [4], 0.00478 s⁻¹. For the same molecule, the kon worked out at 1.75e+06 M⁻¹ s⁻¹ in test [1], 2.79e+06 M⁻¹ s⁻¹ in test [2], 2.97e+06 M⁻¹ s⁻¹ in test [3] and 2.92e+06 M⁻¹ s⁻¹ in test [4].

B6: AB1170244 Fab (Fab, V domains shown)
VH: EVQLVESGGGLVKPGGSLRLSCAASGFTFSSYAMSWVRQAPGKGLEWVAYISSGGDNIYYADTVKGRFTISRDNSKNTLYLQMNSLKTEDTAVYYCTRALVENAYFDYWGQGTTVTVSS
VL: DSVLTQSPDSLAVSLGERATINCRASKSVSTSTYSYMHWYQQKPGQPPKLLIKYASYLESGVPDRFSGSGSGTDFTLKISRVEAEDVGVYYCQHSREFPWTFGGGTKVEIK
notes: as for B1
For B6, the Kd in test [1] worked out at 916 nM; in test [2], 5.47 nM; in test [3], 2.35 nM; in test [4], 2.39 nM. Besides, the koff in test [1] came to 0.54 s⁻¹; in test [2], 0.0145 s⁻¹; in test [3], 0.00558 s⁻¹; in test [4], 0.00595 s⁻¹. The kon in test [1] came to 591000 M⁻¹ s⁻¹; in test [2], 2.64e+06 M⁻¹ s⁻¹; in test [3], 2.39e+06 M⁻¹ s⁻¹; in test [4], 2.49e+06 M⁻¹ s⁻¹.

B7: AB1170245 Fab (Fab, V domains shown)
VH: EVQLVESGGGLVKPGGSLRLSCAASGFTFSSYAMSWVRQAPGKGLEWVAYISSGGDYIYYADTVKGRFTISRDNSKNTLYLQMNSLKTEDTAVYYCTRALVDNAYFDYWGQGTTVTVSS
VL: DIVLTQSPDSLAVSLGERATINCRASKSVSTSSYSYMHWYQQKPGQPPKLLIKYASYLEFGVPSRFSGSGSGTDFTLTISSLQPEDVATYYCQHSREFPWTFGGGTKVEIK
notes: as for B1
As for B7, the Kd stood at 2400 nM in test [1], 20.9 nM in test [2], 10.2 nM in test [3] and 10.5 nM in test [4]. Also, the koff in test [1] worked out at 1.5 s⁻¹; in test [2], 0.0712 s⁻¹; in test [3], 0.0315 s⁻¹; in test [4] it was 0.0321 s⁻¹. In addition, the kon in test [1] came out at 643000 M⁻¹ s⁻¹; in test [2], 3.42e+06 M⁻¹ s⁻¹; in test [3], 3.1e+06 M⁻¹ s⁻¹; in test [4] it was 3.07e+06 M⁻¹ s⁻¹.
